Test results: the supplement of paper PMC7877785
± gives the uncertainty stated by the source.

Test: self-splicing fitness, log relative to wild type (ln ratio); higher = more splicing; Tetrahymena group I intron in knt gene, E. coli kanamycin selection, DiMSum; sequences stand for … in CUCUCU…GGAGGGAAAAGUUAUCAGGCAUGCACCUGGUAGCUAGUCUUUAAACCAAUAGAUUGCAUCGGUUUAAAAGGCAAGACCGUCAAAUUGCGGGAAAGGGGUCAACAGCCGUUCAGUACCAAGUCUCAGGGGAAACUUUGAGAUGGCCUUGCAAAGGGUAUGGUAAUAAGCUGACGGACAUGGUCCUAACCACGCAGCCAAGUCCUAAGUCAACAGAUCUUCUGUUGAUAUGGAUGCAGUUCACAGACUAAAUGUCGGUCGGGGAAGAUGUAUUCUUCUCAUAAGAUAUAGUCGGACCUCUCCUUAAUGGGAGCUAGCGGAUGAAGUGAUGCAACACUGGAGCCGCUGGGAACUAAUUUGUAUGCGAAAGUAUAUUGAUUAGUUUUGGAGUACUCGUGGUCG
How it was run: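 Fitness was computed with DiMSum as the error-weighted combination of replicate fold changes, kanamycin versus none, each normalised to wild type. The library randomised all eight intron nucleotides of the P1ex region, with the intron placed in the knt kanamycin-resistance gene on pET-22b(+) in E. coli BL21(DE3). Six replicate transformations were grown overnight at 37°C or 30°C on LB agar with or without 25 μg/mL kanamycin, plus 100 μg/mL carbenicillin, 50 μM IPTG and 0.2% rhamnose. Pooled colonies were amplicon-sequenced on an Illumina HiSeq 2500.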

| Sequence | self-splicing fitness (ln) (30 °C) | self-splicing fitness (ln) (37 °C) |
| --- | --- | --- |
| AAUAAGCAAUAUUACGAUUC | -2.44 ± 0.12 | -1.13 ± 0.15 |
| UUUCAGCAAUAUUACGCUAG | -0.789 ± 0.084 | -0.5 ± 0.1 |
| GUUAAGCAAUAUUACGUACG | -1.83 ± 0.14 | -0.662 ± 0.14 |
| CGUUAGCAAUAUUACGCUCA | -0.383 ± 0.14 | -0.384 ± 0.15 |
| GGCUAGCAAUAUUACGUGCU | -2.34 ± 0.24 | -1.27 ± 0.14 |
| GUGCAGCAAUAUUACGAUGA | -0.903 ± 0.14 | -0.772 ± 0.14 |
| GAGGAGCAAUAUUACGGGGA | -1.86 ± 0.23 | -3.17 ± 0.4 |
| CUGCAGCAAUAUUACGGCGG | -3.57 ± 0.25 | -2.23 ± 0.28 |
| CGCAAGCAAUAUUACGUUGG | -2.66 ± 0.096 | -1.02 ± 0.1 |
| UAACAGCAAUAUUACGUCGU | -3.43 ± 0.14 | -2.04 ± 0.12 |
| GGGCAGCAAUAUUACGACUU | 0.0195 ± 0.16 | -0.0822 ± 0.19 |
| UUUGAGCAAUAUUACGCGAA | -2.96 ± 0.34 | -1.71 ± 0.2 |
| ACAUAGCAAUAUUACGGGAU | -1.88 ± 0.1 | -0.904 ± 0.12 |
| GUGAAGCAAUAUUACGAUGA | -0.639 ± 0.075 | 0.631 ± 0.093 |
| ACGGAGCAAUAUUACGCUUU | -4.74 ± 0.38 | -1.98 ± 0.17 |
| AGAAAGCAAUAUUACGCCGA | -1.29 ± 0.15 | -0.795 ± 0.15 |
| UCAUAGCAAUAUUACGCGGG | -2.79 ± 0.14 | -1.99 ± 0.12 |
| AUCAAGCAAUAUUACGCCUU | -0.799 ± 0.094 | -0.146 ± 0.12 |
| UAUAAGCAAUAUUACGGCCG | 0.336 ± 0.23 | 0.0314 ± 0.26 |
| CUAGAGCAAUAUUACGGUAA | -3.52 ± 0.29 | -1.5 ± 0.16 |
| GAUAAGCAAUAUUACGAGGG | -4.01 ± 0.39 | -2.19 ± 0.24 |
| CCCGAGCAAUAUUACGGUGC | -4.61 ± 0.32 | -2.77 ± 0.16 |
| ACGAAGCAAUAUUACGAGAU | -4.36 ± 0.17 | -1.79 ± 0.16 |
| ACUCAGCAAUAUUACGUGAG | -1.55 ± 0.062 | -0.663 ± 0.082 |
| AUUCAGCAAUAUUACGUAGU | -0.994 ± 0.047 | -0.0257 ± 0.069 |

| Sequence | self-splicing fitness (ln) (30 °C) | self-splicing fitness (ln) (37 °C) |
| --- | --- | --- |
| UUCAAGCAAUAUUACGGUCU | -2.89 ± 0.16 | -1.97 ± 0.16 |
| UUGGAGCAAUAUUACGGUGU | -3.09 ± 0.32 | -1.64 ± 0.32 |
| UUUAAGCAAUAUUACGAUGU | -2.45 ± 0.14 | -1.96 ± 0.18 |
| AGGUAGCAAUAUUACGAAAA | -2.61 ± 0.031 | -2.01 ± 0.041 |
| AUAUAGCAAUAUUACGCUAA | -1.87 ± 0.3 | -0.768 ± 0.27 |
| AAAUAGCAAUAUUACGACAA | -0.727 ± 0.1 | -0.284 ± 0.1 |
| CUCAAGCAAUAUUACGCUAU | -3.05 ± 0.18 | -2.17 ± 0.16 |
| CCUGAGCAAUAUUACGCUUG |  | -1.23 ± 0.28 |
| CCGCAGCAAUAUUACGAAAA | -3.37 ± 0.21 | -2.39 ± 0.16 |
| AAACAGCAAUAUUACGGUAA | -2.28 ± 0.1 | -0.892 ± 0.083 |
| AAACAGCAAUAUUACGCGUG | -1.42 ± 0.052 | -0.0443 ± 0.066 |
| CAUAAGCAAUAUUACGAUUU | -2.47 ± 0.13 | -2.19 ± 0.16 |
| UCGCAGCAAUAUUACGUGAU | -2.2 ± 0.25 | -3.26 ± 0.35 |
| CGGGAGCAAUAUUACGGAUC | -3.09 ± 0.43 | -2.07 ± 0.42 |
| GGCUAGCAAUAUUACGUCAC | -2.28 ± 0.16 | -1.01 ± 0.17 |
| UCUAAGCAAUAUUACGUUUA |  | -1.69 ± 0.37 |
| CUAGAGCAAUAUUACGGUCG | 0.342 ± 0.11 | -0.264 ± 0.13 |
| CUCUAGCAAUAUUACGAAGA |  | -2.75 ± 0.26 |
| CUGCAGCAAUAUUACGUCGG | -3.32 ± 0.18 | -1.98 ± 0.2 |
| CAGGAGCAAUAUUACGUGAU | -4.53 ± 0.46 | -1.95 ± 0.23 |
| CUACAGCAAUAUUACGUGCG | -1.75 ± 0.081 | -0.715 ± 0.089 |
| AUACAGCAAUAUUACGAAAC |  | -3.1 ± 0.24 |
| UCAAAGCAAUAUUACGGGGG | -2.55 ± 0.14 | -1.49 ± 0.14 |
| CUAAAGCAAUAUUACGCGCU | -3.15 ± 0.16 | -2.06 ± 0.23 |
| UCUCAGCAAUAUUACGGGCG | -0.717 ± 0.08 | -0.262 ± 0.12 |

| Sequence | self-splicing fitness (ln) (30 °C) | self-splicing fitness (ln) (37 °C) |
| --- | --- | --- |
| CGGUAGCAAUAUUACGUAUG | -0.225 ± 0.092 | 0.297 ± 0.12 |
| CAAGAGCAAUAUUACGCAGU | -4 ± 0.46 |  |
| UUUAAGCAAUAUUACGUCCU | -1.82 ± 0.2 | -1.09 ± 0.15 |
| CAAGAGCAAUAUUACGAGGG | -3.17 ± 0.16 | -2.75 ± 0.2 |
| AGUCAGCAAUAUUACGUGAU | -1.52 ± 0.077 | -0.719 ± 0.1 |
| GGAAAGCAAUAUUACGCAUG | -1.24 ± 0.084 | -0.813 ± 0.11 |
| UUGAAGCAAUAUUACGAUUC | -2.33 ± 0.18 | -2.3 ± 0.28 |
| ACAUAGCAAUAUUACGCACU | -0.38 ± 0.083 | 0.676 ± 0.1 |
| CACAAGCAAUAUUACGUCAA | -3.14 ± 0.17 | -2.6 ± 0.2 |
| GCUCAGCAAUAUUACGGCAU | -2.29 ± 0.2 | -1.72 ± 0.15 |
| CAGCAGCAAUAUUACGCGGG | -2.78 ± 0.17 | -2.31 ± 0.2 |
| UCCGAGCAAUAUUACGAGCU |  | -2.68 ± 0.48 |
| AAAUAGCAAUAUUACGAGAU | -2.1 ± 0.16 | -1.47 ± 0.21 |
| CAUAAGCAAUAUUACGCCUA | -2.46 ± 0.35 | -0.984 ± 0.21 |
| AAAAAGCAAUAUUACGCAUG | -0.952 ± 0.066 | 0.04 ± 0.074 |
| CUAAAGCAAUAUUACGCGAA | -3.71 ± 0.25 | -2.63 ± 0.36 |
| UGGGAGCAAUAUUACGUAUU | -2.76 ± 0.33 | -1.91 ± 0.28 |
| CGACAGCAAUAUUACGCCUU | -2.4 ± 0.22 | -1.61 ± 0.23 |
| CGGGAGCAAUAUUACGCUGA | -1.34 ± 0.21 | -2.14 ± 0.31 |
| GGCGAGCAAUAUUACGACUU | 0.166 ± 0.15 | 0.444 ± 0.14 |
| CAAGAGCAAUAUUACGUGCU | -4.39 ± 0.31 | -2.36 ± 0.17 |
| UGAGAGCAAUAUUACGGAGU | -2.89 ± 0.29 |  |
| UGCAAGCAAUAUUACGUUCG | -0.427 ± 0.048 | -0.226 ± 0.067 |
| UUUGAGCAAUAUUACGAAGG | -3.13 ± 0.34 | -1.66 ± 0.31 |
| UGCCAGCAAUAUUACGCAGA | -2.81 ± 0.2 | -1.66 ± 0.14 |

| Sequence | self-splicing fitness (ln) (30 °C) | self-splicing fitness (ln) (37 °C) |
| --- | --- | --- |
| UCCGAGCAAUAUUACGUGCA | -1.45 ± 0.15 | -1.47 ± 0.12 |
| CGUGAGCAAUAUUACGCGAA | -2.35 ± 0.14 | -3.33 ± 0.29 |
| CGGGAGCAAUAUUACGGUUA | -3.42 ± 0.25 | -2.69 ± 0.29 |
| AAAUAGCAAUAUUACGGGUC | -3.56 ± 0.17 | -3.1 ± 0.24 |
| AGUUAGCAAUAUUACGGACU | -3.24 ± 0.28 | -1.03 ± 0.25 |
| AUAAAGCAAUAUUACGCAUA | -1.34 ± 0.088 | -0.0324 ± 0.11 |
| CUCUAGCAAUAUUACGCUGA | -1.6 ± 0.21 | -2.31 ± 0.27 |
| UAGUAGCAAUAUUACGGCCU | -0.563 ± 0.15 | -0.218 ± 0.24 |
| GCCCAGCAAUAUUACGAAUG | -4.15 ± 0.24 | -2.26 ± 0.23 |
| CCCAAGCAAUAUUACGAUCG | -3.46 ± 0.19 | -2.93 ± 0.19 |
| UGAGAGCAAUAUUACGCAGU | -4.62 ± 0.34 | -2.41 ± 0.18 |
| GCUAAGCAAUAUUACGAUCC | -0.136 ± 0.12 | -0.278 ± 0.14 |
| UGCUAGCAAUAUUACGUGUC | -3.7 ± 0.42 | -2.72 ± 0.38 |
| GCCUAGCAAUAUUACGCGUU | -0.166 ± 0.068 | 0.243 ± 0.075 |
| CCAGAGCAAUAUUACGUCCG | -1.7 ± 0.12 | 0.0963 ± 0.14 |
| GUUCAGCAAUAUUACGUUGC | -3.13 ± 0.12 | -1.7 ± 0.11 |
| CAAGAGCAAUAUUACGCUGC | -3.4 ± 0.41 | -2.01 ± 0.24 |
| CCGGAGCAAUAUUACGCUGC |  | -2.04 ± 0.38 |
| GGUAAGCAAUAUUACGCGCG | -0.623 ± 0.1 | 0.012 ± 0.14 |
| GACGAGCAAUAUUACGGACC | -1.34 ± 0.34 | -0.304 ± 0.33 |
| UCCCAGCAAUAUUACGGGUU | -2.48 ± 0.07 | -1.54 ± 0.079 |
| UCUAAGCAAUAUUACGACAC | -3.7 ± 0.18 | -2.82 ± 0.17 |
